Experimental findings from FireProtDB (doi:10.1016/s0022-2836(02)00915-4) are described below.

“And” between values parts separate entries of the source, which are not always exact repeats. Identical values can stand only once.

As usually defined, the Tm is the temperature at which the thermal transition is half complete.

B1: Protein GrpE, P09372 (parent)
chain: MSSKEQKTPEGQAPEEIIMDQHEEIEAVEPEASAEQVDPRDEKVANLEAQLAEAQTRERDGILRVKAEMENLRRRTELDIEKAHKFALEKFINELLPVIDSLDRALEVADKANPDMSAMVEGIELTLKSMLDVVRKFGVEVIAETNVPLDPNVHQAIAMVESDDVAPGNVLGIMQKGYTLNGRTIRAAMVTVAKAKA

In this series the parent is B1. Conditions: Escherichia coli (strain K12); pH 6.8; Thermal; CD; potassium phosphate 10 mM; transition: 3; reversible: yes; structure 1DKG; whole UniProt chain shown.
As for E53G, the Tm is 81 °C and the “change of melting temperature, mutant - wild type (higher = more stable)” value is -2 °C.
For G122D, the “change of melting temperature, mutant - wild type (higher = more stable)” value is -3 °C and 0 °C and -2 °C.
